Values of other authors, collected in patent publication US6518244B2, “Combinations of heparin cofactor II agonist and platelet IIb/IIIa antagonist, and uses thereof” (IntimaX Corporation, priority 2000, dated 2003).

Conditions: recipients of hirudin; cited from Huhle et al, Br. J. Haematol. (1999)

hirudin
recipients in whom anti-hirudin antibodies are elicited: 74%
